Key:
[1] = tested on: conjunctival allergic response to ryegrass allergen; experiment: conjunctival provocation test (CPT) with ryegrass allergen; assay type: in vivo, human
Method: Ten ryegrass-sensitive patients with hay fever conjunctivitis and ten nonallergic subjects without ocular disease are challenged by weekly topical administration of ryegrass allergen for 4 weeks with 10 μl of four different allergen doses (10,000, 32,000, 100,000, and 320,000 BU/ml of ryegrass allergen) (Pharmalgen, Pharmacia Diagnostics AB, Uppsala, Sweden). Albumin diluent (Pharmacia), is used to dilute the allergen. Five of the patients and five of the nonallergic subjects are given allergen premixed with IL-1 receptor. The other five patients and subjects are given allergen without IL-1receptor. Importantly, the allergic patients and control subjects have no clinical symptoms before ocular provocation. […]
The challenge solution is administered to the contralateral eye in both patients and control subjects. Clinical conjunctival evaluation with tear-fluid cytology is assessed in both eyes before administration of allergen or buffer 20 minutes, one hour, and six hours after challenge. In both the allergic patients and control subjects, the following ocular symptoms, both subjective and objective, are evaluated by a physician: hyperemia, edema, tearing, and itching. Each symptom is scored from 0 to 4+ and graded as follows: 0—absent; 1+—mild; 2+—moderate; 3+—severe; and 4+—very severe. […]

[2] = tested on: late phase reaction in lung tissue of patients with allergic bronchial asthma; experiment: allergen inhalation (dust mite extract) with bronchoalveolar lavage; assay type: in vivo, human; details: allergen premixed with IL-1 receptor versus allergen alone
Method: In this example, twenty patients with documented allergic bronchial asthma participate. Allergen inhalation is performed by inhaling dust mite extract (see Example 1, above) at 15 minute intervals using a Wiesbadnener Doppelspray (8 L/min air flow, nebulizer output approximately 0.2 ml/min). Ten patients received the allergen premixed with IL-1 receptor; the other ten patients received the allergen alone.
Eosinophil granule major basic protein levels are markedly elevated in the lavage fluid of these asthmatic patients. Peripheral blood eosinophil counts decrease during late phase responses to antigen challenge at the time eosinophil levels in the pulmonary tissues increases, presumably because of margination and emigration in the lungs.

[3] = tested on: cutaneous allergic reactions following the intradermal administration of antigen; experiment: LPR skin test, intradermal challenge with dust mite antigen; assay type: in vivo, human; details: IL-1 receptor 1.65 mg/ml injected with dust mite antigen, versus allergen without receptor
Method: The LPR skin test is performed by interadermally injecting subjects on the forearm with test solution. The test solution contains the challenging antigen. Controls receive test solution without challenging antigen. The injection site is thereafter examined at intervals up to 96 hours. The diameters of the reactions are measured in two perpendicular directions and the characteristics are noted at different times.
The LPR gradually subsides over a 24 hour period. At the peak, the injection site is characterized by erythema, warmth, edema, pruritus and/or tenderness. The LPR is more extensive in area and produces greater discomfort then the early phase reaction.
Dust mite antigen is used (D. pteronyssinus; Allergy Laboratories of Ohio; 30,000 AU/ml). The soluble IL-1 receptor (Immunex Corp.; Seattle, Wash.) stock concentration is 10 mg/ml. Eight test solutions are prepared for intradermal injections (0.01 ml each) using TB syringes and disposable needles. Four intradermal test sites are used on each forearm.
Two test solutions are controls. […] Three concentrations of the antigen are evaluated (final concentrations: 1:500,000, 1:200,000, and 1:100,000).
The area of the wheal reaction is marked on the skin with a ball-point pen. […] The wheal reactions are then calculated by counting the squares within the pen-marked area.

alloreactivity in vivo = details: systemic administration; cited from earlier work
[4] = tested on: early and late phase response in nasal tissue of patients with seasonal allergic rhinitis; experiment: nasal challenge with ragweed or mixed-grass pollen antigen; assay type: in vivo, human; details: prechallenge nasal lavages with IL-1 receptor versus buffer, 1000 PNU antigen, late and rechallenge reactions
From the text: Sixteen patients with seasonal allergic rhinitis due to grass or ragweed pollens are selected.
Ragweed and mixed-grass pollen extracts (timothy, orchard, June and meadow grass in a ratio of 3:2:3:2) are purchased from Greer Laboratories (Lenoir, N.C.); lactated Ringer's solution and oxymetazoline hydrochloride (Afrin, Schering, Kenilworth, N.J.) are purchased from the hospital pharmacy.
At the time of the challenge, oxymetazoline hydrochloride is sprayed into the nose (two sprays per nostril) of all patients to prevent mucosal congestion, which would interfere with the collection of nasal secretions.
Eight of the sixteen patients receive four prechallenge nasal lavages with IL-1 receptor diluted in buffer; the remaining […] receive lavages with buffer only. Thereafter, challenges with 1000 PNU of antigen are undertaken.
The patients maintain a symptom score sheet during the challenge procedure. In addition to the number of sneezes, a six-point scale from 0 to 5 (with 0 equal to no symptoms and 5 equal to severe symptoms) is used to assess nasal secretion, blockage, and itching. The degree of blockage is, of course, underestimated on those score sheets because of the pretreatment with oxymetazoline hydrochloride. The presence or absence of symptoms correlates with the presence or absence of mediators during the late reaction.

[5] = tested on: experimental autoimmune encephalomyelitis; details: interperitoneal administration; cited from earlier work

B1: IL-1 receptor: soluble IL-1 receptor (Immunex Corp.; Seattle, Wash.), stock concentration 10 mg/ml (protein, UniProt P14778 18-336, looked up)
extracellular domain: LEADKCKEREEKIILVSSANEIDVRPCPLNPNEHKGTITWYKDDSKTPVSTEQASRIHQHKEKLWFVPAKVEDSGHYYCVVRNSSYCLRIKISAKFVENEPNLCYNAQAIFKQKLPVAGDGGLVCPYMEFFKNENNELPKLQWYKDCKPLLLDNIHFSGVKDRLIVMNVAEKHRGNYTCHASYTYLGKQYPITRVIEFITLEENKPTRPVIVSPANETMEVDLGSQIQLICNVTGQLSDIAYWKWNGSVIDEDDPVLGEDYYSVENPANKRRSTLITVLNISEIESRFYKHPFTCFAKNTHGIDAAYIQLIYPVTNFQK
modifications: extracellular domain
notes: soluble IL-1 receptor (Immunex Corp; Seattle, Wash.), stock concentration 10 mg/ml
immediate hypersensitivity ocular reaction (clinical response) ([1]; allergic subjects, allergen premixed with IL-1 receptor versus allergen without receptor, all allergen doses): significantly reduced response | increase in eosinophils in the tear fluid ([1]; highest allergen dose, 6 hours after provocation (late phase), allergic patients): not seen | activation of mast cells, infiltration of the tissues by eosinophils and other inflammatory cells, tissue damage and dysfunction (histologic data) [2]: markedly suppressed | eosinophil emigration in the lungs (bronchoalveolar lavage) [2]: suppression | reduction of wheal at peak of LPR ([3]; LPR peak between eight and 13 hours): at least 50% | wheal area, early phase ([3]; twenty minutes post injection): reduced | survival of heart allografts (alloreactivity in vivo): prolonged | nasal symptoms [4]: inhibits | release of histamine and other inflammatory mediators [4]: inhibits | severity of the disease [5]: reduced
